Measured values as given in patent publication CN118525034A (INTERVET INT BV, dated 2024).

T1: 犬IL-31RA ECD-10His (犬 (canine))
T1 chain: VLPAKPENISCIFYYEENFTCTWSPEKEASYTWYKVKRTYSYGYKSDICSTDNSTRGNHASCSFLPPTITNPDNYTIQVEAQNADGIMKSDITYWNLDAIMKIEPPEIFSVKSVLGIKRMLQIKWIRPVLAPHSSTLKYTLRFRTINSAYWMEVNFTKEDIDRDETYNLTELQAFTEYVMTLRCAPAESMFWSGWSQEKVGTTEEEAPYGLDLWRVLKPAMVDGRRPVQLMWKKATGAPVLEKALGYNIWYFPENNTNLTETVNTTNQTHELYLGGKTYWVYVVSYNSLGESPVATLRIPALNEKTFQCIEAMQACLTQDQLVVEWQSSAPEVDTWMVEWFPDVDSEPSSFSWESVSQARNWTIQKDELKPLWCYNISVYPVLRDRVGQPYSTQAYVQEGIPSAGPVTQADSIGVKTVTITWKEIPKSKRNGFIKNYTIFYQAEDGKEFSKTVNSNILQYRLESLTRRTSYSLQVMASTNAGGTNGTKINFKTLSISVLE


Legend:
[1] = target: 犬IL-31RA ECD-10His (犬 (canine)); test: ELISA, IL-31RA ECD coated at 1 µg/mL, biotinylated canine IL-31 titrated, HRP-streptavidin
犬IL-31RA ECD-10His [2] = target: T1, 犬IL-31RA ECD-10His; test: Octet BLI, biotinylated canine IL-31RA on SA biosensor, mAb 100-3.13 nM, 1:1 model
犬IL-31RA ECD-10His [3] = target: T1, 犬IL-31RA ECD-10His; test: Octet BLI; lower end of the range, tied to 224G3 by Table 2
犬IL-31RA ECD-10His [4] = target: T1, 犬IL-31RA ECD-10His; test: Octet BLI, biotinylated canine IL-31RA on SA biosensor
犬IL-31RA ECD-10His [5] = target: T1, 犬IL-31RA ECD-10His; test: Octet BLI; upper end of the range, tied to 85C10 by Table 2

EC50 [1]	Kd (犬IL-31RA ECD-10His [2])	koff (犬IL-31RA ECD-10His [2])	kon (犬IL-31RA ECD-10His [2])	Kd (犬IL-31RA ECD-10His [3])	Kd (犬IL-31RA ECD-10His [4])	Kd (犬IL-31RA ECD-10His [5])	Molecule
0.55 ng/mL	–	–	–	–	–	–	犬IL-31 (ligand)
–	0.000964 nM	1.08e-06 s⁻¹	1.12e+06 M⁻¹ s⁻¹	0.001 nM	–	–	224G3 (antibody, V domains shown) VH: EVQLVESGGDLVKPGGSLKLSCAASGFTFSSYGMSWVRQTPDKRLEWVATISNGGSYTYYPDSVKGRFTISRDNAKNTLYMQMSSLKSEDTAMYYCARNEPPDYWGQGTSVTVSS VL: DIQMTQSPASLSVSVGETVTITCRASENIYSSLAWYQQKQGKSPQLLVYAATNLADGVPSRFSGSGSGTQYSLKINSLQSEDSGNYYCQHFRDTPPTFGGGTKLEIK
–	0.451 nM	0.000355 s⁻¹	787000 M⁻¹ s⁻¹	–	–	–	65G9 (antibody, V domains shown) VH: EFQLQQSGPELVKPGASVKISCKASGYSFTDYGMNWLKQINGKSLEWIAIINPNYGTASSNPKFKDKATLTVDHSSSTAYMQLSSLTSEDSAVYYCARAFDGYYFYWYFDVWGTGTTVTVSS VL: SIVMTQTPKFLLVSAGDRVTITCKASQSVTNDVTWYQQKPGQSPKLLIFSASNRYTGVPDRFTGSGYGTDFTFTISTVQAEDLAVYFCQQDYSSPWTFGGGTKLEIK
–	0.207 nM	0.000141 s⁻¹	684000 M⁻¹ s⁻¹	–	~0.2 nM	–	51F8 (antibody, V domains shown) VH: EVQLQQSVAELVRPGASVKLSCTASGFNIKNTFIHWVKQRPEQGLEWIGRIDPANGNTKYAPKFQGRATLTADTSSNTAYLQLSSLTSEDTAIYYCARYYYVSSYFDVWGTGTTVTVSS VL: SIVMTQTPKFLLVSAGDRVTITCKASQSVTNDVTWYQQKPGQSPKLLIYYASNRYTGVPDRFTGSGYGTDFTFTISTVQAEDLAVYFCQQDYSSPFTFGSGTKLEIK
–	0.851 nM	0.000363 s⁻¹	427000 M⁻¹ s⁻¹	–	–	0.85 nM	85C10 (antibody, V domains shown) VH: EFQLQQSGPELVKPGASVKISCKASGYSFTDYSINWVKQSNGKSLEWIGVINPNYGTSSHNQKFKGKATMTVDQSSSTAYMQLNSLTSEDSAVYYCARALDDYYFYWYFDVWGIGTTVTVSS VL: DVVMTQTPLSLPVSLGDQASISCRSSQSLIHTNGNTYLHWYLQKPGQSPKLLIYKVSNRFSGVPDRFSGSGSGTDFTLKISRLEAEDLGVYFCSQSTHVPLTFGAGTKLELR
–	0.0698 nM	4.63e-05 s⁻¹	664000 M⁻¹ s⁻¹	–	~0.07 nM	–	218D9 (antibody, V domains shown) VH: QVTLKESGPGILQPSQTLSLTCSFSGFSLSTFGRGVGWIRQPSGKGLDWLTHIWWDDDKYYNPALKSRLTISKDTSKNQVFLKIANVDTADTATYYCARIAGGLRRAPYAMDSWGQGTSVTVSS VL: DVVMTQTPLSLPVSLGDQASISCRSSQSLVHTNGNTYLHWYLQKPGQSPKLLIYKVSNRFSGVPDRFSGSGSGTDFTLKISRVEAEDLGVYFCSQTTHVPLTFGAGTKLELK
–	0.131 nM	4.87e-05 s⁻¹	370000 M⁻¹ s⁻¹	–	–	–	209G5 (antibody, V domains shown) VH: EVQLQQSVAELVRPGASVKLSCTASGFNIKNTYMHWVKERPEQGLEWIGRIDPANGNSKYAPKFQGKATITTDTSSNTAYLQLSSLTSEDTAIYYCARYYYVSSHFDVWGTGTTVTVSS VL: DIKMTQSPSSMYASLGERVTITCKASQDINSYLNWFQQKPGKSPKTLIYRADRLVDGVPSRFSGSGSGQDYSLTISSLEYEDMGIYYCLQYDEFPLTFGDGTKLELN
